Assays:
Experiment in all cases: fluorescence anisotropy
ScPif1p DM = target: T1, ScPif1p DM (Saccharomyces cerevisiae, UniProt P07271 237-780, E242A;K273A;R281A)
T1 sequence: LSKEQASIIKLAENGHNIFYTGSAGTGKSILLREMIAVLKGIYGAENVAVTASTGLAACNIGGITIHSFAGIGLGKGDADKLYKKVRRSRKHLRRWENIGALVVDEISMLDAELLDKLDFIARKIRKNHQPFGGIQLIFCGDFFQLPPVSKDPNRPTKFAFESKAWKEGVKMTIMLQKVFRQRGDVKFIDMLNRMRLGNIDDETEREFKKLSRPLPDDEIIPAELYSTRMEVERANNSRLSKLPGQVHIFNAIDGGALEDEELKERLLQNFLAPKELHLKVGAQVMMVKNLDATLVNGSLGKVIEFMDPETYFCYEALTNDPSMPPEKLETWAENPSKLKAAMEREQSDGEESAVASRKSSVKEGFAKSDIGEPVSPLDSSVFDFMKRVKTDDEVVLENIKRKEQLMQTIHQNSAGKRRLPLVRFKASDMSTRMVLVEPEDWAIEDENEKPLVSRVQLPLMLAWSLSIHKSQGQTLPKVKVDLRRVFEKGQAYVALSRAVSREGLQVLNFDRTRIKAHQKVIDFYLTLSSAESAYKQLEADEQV

ScPif1p K363A = target: T2, ScPif1p K363A (Saccharomyces cerevisiae, UniProt P07271 237-780, K363A)
T2 sequence: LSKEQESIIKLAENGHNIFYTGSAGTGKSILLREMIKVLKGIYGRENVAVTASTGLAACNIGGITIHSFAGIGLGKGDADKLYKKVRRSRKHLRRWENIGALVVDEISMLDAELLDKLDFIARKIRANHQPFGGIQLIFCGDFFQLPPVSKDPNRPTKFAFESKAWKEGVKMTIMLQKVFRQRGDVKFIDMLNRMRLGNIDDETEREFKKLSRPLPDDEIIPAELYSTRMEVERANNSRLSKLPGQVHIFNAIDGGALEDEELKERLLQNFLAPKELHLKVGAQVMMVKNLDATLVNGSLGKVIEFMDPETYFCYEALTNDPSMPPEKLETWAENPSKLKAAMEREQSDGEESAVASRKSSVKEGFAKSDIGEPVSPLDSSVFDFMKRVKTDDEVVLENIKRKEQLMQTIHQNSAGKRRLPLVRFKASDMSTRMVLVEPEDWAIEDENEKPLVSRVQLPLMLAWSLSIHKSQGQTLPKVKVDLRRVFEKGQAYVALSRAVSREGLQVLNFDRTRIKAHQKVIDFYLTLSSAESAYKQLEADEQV

ScPif1p R324N = target: T3, ScPif1p R324N (Saccharomyces cerevisiae, UniProt P07271 237-780, R324N)
T3 sequence: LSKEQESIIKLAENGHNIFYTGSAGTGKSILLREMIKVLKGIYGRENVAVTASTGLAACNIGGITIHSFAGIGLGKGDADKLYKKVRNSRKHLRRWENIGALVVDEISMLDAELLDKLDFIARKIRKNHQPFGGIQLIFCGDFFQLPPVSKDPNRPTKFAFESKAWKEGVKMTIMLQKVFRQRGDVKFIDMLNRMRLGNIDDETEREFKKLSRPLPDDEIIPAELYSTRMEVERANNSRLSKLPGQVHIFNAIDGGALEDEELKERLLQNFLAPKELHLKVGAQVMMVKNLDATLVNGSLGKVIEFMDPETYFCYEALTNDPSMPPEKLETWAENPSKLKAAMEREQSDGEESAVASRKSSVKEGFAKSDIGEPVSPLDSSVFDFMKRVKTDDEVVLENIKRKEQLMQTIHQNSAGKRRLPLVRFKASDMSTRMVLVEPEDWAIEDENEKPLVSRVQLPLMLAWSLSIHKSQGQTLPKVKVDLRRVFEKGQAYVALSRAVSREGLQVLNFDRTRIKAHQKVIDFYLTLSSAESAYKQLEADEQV

ScPif1p E681G = target: T4, ScPif1p E681G (Saccharomyces cerevisiae, UniProt P07271 237-780, E681G)
T4 sequence: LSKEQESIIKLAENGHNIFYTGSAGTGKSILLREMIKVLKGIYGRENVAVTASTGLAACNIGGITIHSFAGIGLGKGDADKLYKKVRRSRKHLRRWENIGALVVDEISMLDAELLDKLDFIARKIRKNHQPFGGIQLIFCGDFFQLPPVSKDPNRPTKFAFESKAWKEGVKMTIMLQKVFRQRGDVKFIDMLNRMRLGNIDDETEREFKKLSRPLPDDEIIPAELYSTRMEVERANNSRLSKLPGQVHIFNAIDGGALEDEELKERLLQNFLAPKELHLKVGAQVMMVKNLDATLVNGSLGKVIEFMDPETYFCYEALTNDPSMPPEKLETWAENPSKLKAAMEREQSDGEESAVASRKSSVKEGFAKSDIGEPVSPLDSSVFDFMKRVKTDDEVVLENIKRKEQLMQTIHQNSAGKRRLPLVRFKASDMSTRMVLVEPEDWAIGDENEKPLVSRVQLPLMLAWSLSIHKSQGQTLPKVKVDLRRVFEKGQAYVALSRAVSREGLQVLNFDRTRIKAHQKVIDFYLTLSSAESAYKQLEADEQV

B1: dsDNA16bp (dsDNA)
DNA 1: CTCTGCTCGACGGATT
DNA 2: AATCCGTCGAGCAGAG
Kd (ScPif1p DM): 95.5 ± 8.5 nM | Kd (ScPif1p K363A): 72.3 ± 8.3 nM | Kd (ScPif1p R324N): 57.9 ± 1.1 nM | Kd (ScPif1p E681G): 56.1 ± 11.6 nM

GTGTGTGTGGTG (ssDNA) [GR12]
Kd (ScPif1p DM): 13.4 ± 0.8 nM | Kd (ScPif1p K363A): 14.4 ± 1.3 nM | Kd (ScPif1p R324N): 11.4 ± 4.3 nM | Kd (ScPif1p E681G): 12.4 ± 3.9 nM

AGGGTGGGTGGGTGGGT (structured_DNA) [F-G417]
Kd (ScPif1p DM): 23.8 ± 2.5 nM | Kd (ScPif1p K363A): 43.9 ± 2.2 nM | Kd (ScPif1p R324N): 87.9 ± 7.1 nM | Kd (ScPif1p E681G): 76.5 ± 10.5 nM
